Source: the supplement of paper PMC9942255
Several values for one entry are separate records, joined by “and”; a condition that tells them apart may be missing. Equal entries are not always repeated.

Test system: Bacillus subtilis DB104 (SP-AmyQ fusion secretion)
Assay: AmyQ secretion efficiency, weighted average sort bin (1 = best secretion, 10 = worst) (bin number (weighted average, 1-10)); higher = lower secretion efficiency
Method in brief: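 A B. subtilis DB104 library carrying amyE-integrated fusions of designed signal peptides to mature AmyQ was encapsulated at about 0.3 cells per ~65 nL alginate bead with fluorescein-starch and grown about 13 h at room temperature. Following nile red staining, occupied beads were flow-sorted as large particles into 10 equally populated bins by green/red fluorescence ratio, and the bin amplicons were Illumina-sequenced. The secretion score is the read-frequency-weighted average bin number normalised to beads per bin, leaving out low-abundance sequences.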

Sequence | AmyQ secretion efficiency
MRMLWRSKRRCKLALTLAPCAQAAEP | 7.06
MPIKKKVMMCLAVTLVFGSMSSGGFKE | 5.66
MRKKLKWLSFLLGFIILLFLFKKKFSNNDS | 7.77
MKRLTLVCSIVFILFILFYDLKIGTIPIQDLPVYEESAKTA | 5.76
MKKQIITATTAVVLGSTLFAAASSTGAASAQSI | 3.24
MKLRKVLTGSVLSLGLLDDEEDDAFATSP | 7.86
MPIKKKVMMCLAVTLVFGSMDEETLTNSGGFKE | 6.94
MKKTIMSFVAVAALSTTAFGAHASAATK | 3.57
MFNRLFRVCFLAALIMAFTLPNSIYAQKP | 2.87
MRKRKKRLSVAVAASFMSLSISLPGVQAAEG | 2.16
MFNRLFRVCFLAALIMAFTLPNSVYAQPK | 1.86
MKRMIVRMTLPLLIVCLAFSSFSASTRAASE | 2.26
MKKLLAAGIIGLLTVSIASPAFAAEK | 2.44
MKWMCSICCAAVLLAGGAAQTEAV | 3.03
MGRIKTKITILLVLLLLLAGGYTYIN | 5.32
MKKKQVMLALTAAAGLGLTALHSAPAHKAAPL | 6.85
MRRKKRKAVLLSLIMLIAGFLISFSFQM | 7.79
MKQGKFSVFLILLLMLAPKEKAEAASS | 2.23
MRKKRLLTIYIMLLGLIAWFPGAAQAEEK | 3.47
MRKVLTMCFLGLILFVPTALADNS | 2.17
MRHKIITFILAVVVIIIIGNMIGGGGGSEATSE | 3.29
MKKWMAGLFLAAAVLLCLLVTSLMVPQQIQGASS | 4.31
MKNMSCKLVVSVTLFFSFLTIGPLIHAQNS | 1.06
MKKKIVAGLAVSAVVIVAMAAAIAEAKTI | 6.55
MKMKSGMEQAVSVLLLLSRLPVQYSLTSE | 5.01
MKRFSTAYLLLGILCSAAVFLILSAGAPSRALGAEV | 3

Sequence | AmyQ secretion efficiency
MLKKKWMVGLLAGCLAAGGFSYNAFFTEN | 6.5
MRKKCKVCLWILVLLLSCLSGKSAYAATS | 2.26
MRKKRVITCVMAASLTLGSLLPAGYASAASD | 1.13
MKKRLIAPMLLSAASLAFFAMSGSCQAAAY | 2.58
MKSKGSIMACLILFSFTITTFINTETISEFSN | 7.72
MFKFKKNFRRRRRRALMSISLFSATASAAST | 6.72
MTMLRKKGRWSLLLCIIPLFAFTVIASGKEV | 6.17
MAIIIAIIAAVIVIAALITFEVRNASPG | 5.68
MKLAKRVRKLTPSTTLAITAKAKEL | 8.89
MKKRFSGQMMTGLLFGLTSPAFAAEK | 6.38
MKKWMALTSGLFLAAAVLLCLMVPQQIQGASS | 4.17
MKKKRLAAGLTASAIVGTTLVVTPAEAATI | 4.26 and 3.28
MVKKWLIQFAVMLSVLSTFTYSASIVGV | 8.01
MLKKKWMVGLLAGCLAAGGFSYNAFRTEN | 5.68
MRPVFPGKGQYVLFLSCFFGARQTEASASKR | 6.9
MKLAKRVSALTPSTTLAITAKYKEL | 5.07
MKKRLIAPMLLSAASLAFFAMSGSAQNAAY | 8.43
MKKRLIAPMLLSAASLAFFAMSGSAQAAAE | 2.56
MNFKKTITTSSSVVSALSISALALSVSGVASAHEI | 4.04
MKSKWMSGLLLVAVGFSFTQVMYHAGET | 7.02
MKKLLAAGIIGLLTVSIASPHFAAEK | 7.4
MRKYTVIASILLSFLSVLDEDDEDHHESKAFPV | 5.95
MRKNRILALFVLSLGLLKRKRKKVSAASK | 6.69
MFRLLVSLRVWMVFLMNWVTPDRKTAAAAVY | 7.07
MKLSVKIAGVLTVAAAAMTAKMYATIKGN | 6.84
MKRIRIPMTLALGAALTIAPLDEEDDDASAEEN | 5.27
